Measured values reported in paper PMC12401731.

What was measured:
[1] = target: HIV-1 RT p66 with TEV-cleavable N-terminal His tag (HTp66) (HIV-1); test: cross-linking + other: mass photometry
[2] = target: HIV-1 RT p66 with TEV-cleavable N-terminal His tag (HTp66) (HIV-1); test: mass photometry
HTp66 K259A (HIV-1) = test: mass photometry

| Substance | percent of the population as dimer [1] [%] | percent dimer at 500 nM JLJ648 [2] [%] | percent dimer at 500 nM JLJ648 (HTp66 K259A (HIV-1)) [%] |
| --- | --- | --- | --- |
| HIV-1 RT p66 with TEV-cleavable N-terminal His tag (HTp66) (enzyme) | 26 | 58 | – |
| HTp66 K259A (enzyme) | – | – | 52 |
